Measurements published in IntAct's records for PubMed 11124807.

B1: Sex-determining transformer protein 2 (Caenorhabditis elegans), P34709 (parent)
chain: MKLKYNKLLVSVVIVTFVTFGLLLAECFGKSIDYQEKSIFPSFVSQGFFETRTNNEEYIIEKIAQTQENGVDMRSTLHFTQHGYLLNNISNLKIKFRQKTYTLNDVCFKPHITIFQQSSSSDQNEYPHYIQRLLLEMQRLSPCLIVTPLNCFYDIYRIHGEISNWNKNTDFLNRRLRNSYIEAIGENDERPYVKSNYGPSLIKSWADHMFDLPSKSFTNSTKDALFQKIKLWLLSIEPRQKTCAASIHSCDTPLDSEHYFNICTDMQSVDNFAEKKTKFKLEDVDEEFAMNLDCVDDQEQFIEWMQELEIRKMYSHVTEKPDYPNVVNQTCDKIFHDLNSTGIEFFDGSRSFSSTKSQFDTMQTEIVLLTPEMLLSAMQHSDFVNGFESIWTIEKAEELIHEFRLALKEETEKFKENRMSKMIRVTSRVLDNTVTTKLQSFSEKQTIHFVVNVHSLIVILFTIFVWSGAPLRSAFMFFVRDALTCLLFCFVCSTDGVIVLDTELIKYIIVLTLANLYFTTRSSFCTERLSRCIQREKRFPINSNFASLITVDTMTDSRQIQYFLSTVTKYQAAQDSYSNELFERFPKNWGCTSILIFPIVFVYWYFIDSNFDKICVSVLPSFCLAAGEELFAKNMFWKEREAMQAKQRLENEEQAESITGSSLEKLFAGNKPVSNTDKANIVKKSSIIRNQKPCLQDLSPGTYDVSNFMKYPHQASRIFREKIIGLYLRILKLRTLGVILCIPAILLIVISIGLLFIPVKRETLHTDSKQDDIFIEFEIFNFSTNWKIVNQNLKQFSEDIESIGTLYTISNWQKSFERFEQETNKNASAEWNILFKWINDEPINSAVTLFSEKSSGNQTIANPFKFRLRYGFDAKNETTVIEIVQKIDELLSKCSKNLSPKAVGVLYEHYHRIAVVWNLFAFNQLTTAGIFIILLSIITFIFAITPTIKATFLFSLLVVGTQIEVAALVHLFSLDHHQIYTNLALFAGFLAAWDPFCALLRYRRRILYKSETRRTPELASKRRVLLPIVATADIAQFFVLLITAFSILAIICSIVPELNIFFVPTVILIVIQIVAVFNSIIVSIATKQMFESEVRHYLHRDLRGSTTAVRVYNLVQKQRLASSLDEPQVELDEFSIKRSSPPCRYYAPPPKYSCKKRSRSSDEDEDSDPNQPGPSNRRSPKTGNKRVRGNGDNTELYIPNRYELIVSGKSVGGNTSAAWNGPGSTLEQNMNALEECFELGVDEYDFDEHDGDEGCELVQDMLDRERNLMNKRSTAQRRESRNIEKMKKSQENLDKEKSEEKISESKKNQDDSIESPNLPGTPANLPVDEPLPPVGRLYIVEHVLPEEYRRDPLTEPPSMEDCIRAHSDPNLPPHPRADQYPASFTRPMVEYCEDIYWTHRTGQLPPGLQVPRRPYDYYHITERTPPPEDLNWVPPAESPPIPIPQQAFDLLEERRRNHREQQDEAREGDLSDPEV
partner: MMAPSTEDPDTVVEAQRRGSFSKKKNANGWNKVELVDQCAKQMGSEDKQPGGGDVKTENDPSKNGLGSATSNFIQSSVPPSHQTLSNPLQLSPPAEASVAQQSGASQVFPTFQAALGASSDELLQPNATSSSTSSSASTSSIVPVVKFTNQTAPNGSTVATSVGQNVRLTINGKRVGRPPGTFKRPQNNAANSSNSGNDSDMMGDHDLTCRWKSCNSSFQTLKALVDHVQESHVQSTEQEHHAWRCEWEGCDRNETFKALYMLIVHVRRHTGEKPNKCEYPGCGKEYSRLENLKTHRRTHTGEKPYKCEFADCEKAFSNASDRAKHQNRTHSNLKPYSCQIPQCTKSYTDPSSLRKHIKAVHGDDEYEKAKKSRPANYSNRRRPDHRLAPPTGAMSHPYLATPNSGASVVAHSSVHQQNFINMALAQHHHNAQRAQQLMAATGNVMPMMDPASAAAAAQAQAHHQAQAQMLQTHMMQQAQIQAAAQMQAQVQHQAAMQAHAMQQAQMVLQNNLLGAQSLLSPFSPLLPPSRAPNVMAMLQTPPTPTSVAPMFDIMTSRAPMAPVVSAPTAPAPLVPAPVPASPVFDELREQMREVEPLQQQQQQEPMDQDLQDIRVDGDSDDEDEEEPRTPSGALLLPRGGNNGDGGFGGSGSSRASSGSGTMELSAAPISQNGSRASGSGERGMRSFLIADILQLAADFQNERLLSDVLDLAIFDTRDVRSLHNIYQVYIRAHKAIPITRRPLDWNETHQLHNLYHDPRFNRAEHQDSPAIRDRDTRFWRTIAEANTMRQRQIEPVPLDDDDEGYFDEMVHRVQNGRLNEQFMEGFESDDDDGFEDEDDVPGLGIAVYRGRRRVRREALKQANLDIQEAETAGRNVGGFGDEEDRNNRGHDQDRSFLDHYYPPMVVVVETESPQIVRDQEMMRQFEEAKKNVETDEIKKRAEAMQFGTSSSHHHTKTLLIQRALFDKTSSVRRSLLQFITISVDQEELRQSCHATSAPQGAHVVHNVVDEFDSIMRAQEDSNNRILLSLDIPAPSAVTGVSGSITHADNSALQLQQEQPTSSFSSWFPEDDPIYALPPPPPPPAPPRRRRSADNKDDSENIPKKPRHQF
B2: Sex-determining transformer protein 1 (Caenorhabditis elegans), P34708 (parent)
chain: B1 partner
partner: B1 chain

Variants of: B1
Details: with tra1_caeel tra-1, P34708

effect of a mutation on the interaction | Variant
decreasing interaction | C1392Y;E1393K;R1400Q

Variants of: B2
Details: with tra2_caeel tra-2, P34709

effect of a mutation on the interaction | Variant
decreasing interaction | L723F
